According to PMC8470133, “Aptasensor for the Detection of Mycobacterium tuberculosis in Sputum Utilising CFP10-ESAT6 Protein as a Selective Biomarker”:

Target: T1, CFP10-ESAT6 antigen (Mycobacterium tuberculosis, UniProt P9WNK5;P9WNK7 2-100;2-95)
T1 chain 1: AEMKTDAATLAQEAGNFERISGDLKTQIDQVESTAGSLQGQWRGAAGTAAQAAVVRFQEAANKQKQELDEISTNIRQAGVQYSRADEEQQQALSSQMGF
T1 chain 2: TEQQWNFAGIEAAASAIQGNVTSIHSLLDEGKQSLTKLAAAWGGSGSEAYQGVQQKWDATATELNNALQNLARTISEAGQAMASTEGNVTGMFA
Assay: circular dichroism; Sensor: antigen incubated 1 h at 37 °C on aptamer electrode blocked with 0.25% BSA, PBS wash; DPV in 0.1 M PBS pH 7.4; CD buffer not given
Details: protein: commercial; copies: 1;1; folded

B1: CapApt (CFP10-ESAT6 aptamer) (ssDNA)
DNA: GCCTGTTGTGAGCCTCCTAACCCCATCTTATACGTATATGGACTCATCTCGACCCCCGATAGGCTTGGTACATGCTTATTCTTGTCTCCC
modifications: 5'-NH2
B1: binds.
